# Laboratory results taken from the RNAGym collection of RNA variant scans (doi:10.7554/elife.80360).
# B1: HDV Ribozyme (parent)
# chain: GGCCGGCAUGGUCCCAGCCUCCUCGCUGGCGCCGGCUGGGCAACAUUCCGAGGGGACCGUCCCCUCGGUAAUGGCGAAUGGGACCCA
# Variants of: B1
# Assay: self-cleavage, relative activity (ratio to wild type); higher = more cleavage; co-transcriptional
row,Variant,self-cleavage
1,AGCCGGCAUGGUCCCAGCCUCCUCCCUGGCGCCGGCUGGGCAACAUUCCGAGGGGACCGUCCCCUCGGUAAUGGCGAAUGGGACCCA [G1A G25C],0
2,AGCCGGCAUGGUCCCAGCCUCCUCGCUGGCGCCGGCUGGGCAACAUUCCGAGGGGACCGUCCCCUCGGUAAUGGCGAAUGGGCCCCA [G1A A83C],0.138
3,AGCCGGCAUGGUCGCAGCCUCCUCGCUGGCGCCGGCUGGGCAACAUUCCGAGGGGACCGUCCCCUCGGUAAUGGCGAAUGGGACCCA [G1A C14G],0.0665
4,AGCCGGCAUGGUCCCAGCCUCCUCGCUGGCGCCGGCUGGGCAACAUUCCGAGGGGACCGUCCCCUCGGUAAUAGCGAAUGGGACCCA [G1A G73A],0.128
5,AGCCGGCAUGGUCCCAGCCUCCUCGCUGGCGCCGGCUGGGCAACAUUCCGAGGGGACCGUCCCCUCGGUAAUGGCGCAUGGGACCCA [G1A A77C],0.0405
6,AGCCGGCAUGGUCCCAGCCUCCUCGCUGGCGCCGGCUGGGGAACAUUCCGAGGGGACCGUCCCCUCGGUAAUGGCGAAUGGGACCCA [G1A C41G],0
7,AGCCGGAAUGGUCCCAGCCUCCUCGCUGGCGCCGGCUGGGCAACAUUCCGAGGGGACCGUCCCCUCGGUAAUGGCGAAUGGGACCCA [G1A C7A],0.191
8,AGCCGGCAUGGUCCCAGCCUCCUCGCUGGCGCCGGUUGGGCAACAUUCCGAGGGGACCGUCCCCUCGGUAAUGGCGAAUGGGACCCA [G1A C36U],0.244
9,AGCCGGCAUGGUCCCAGCCUCCUCGCUGGCGCCGGCUGGGCAACAUUCCGAGGGGAUCGUCCCCUCGGUAAUGGCGAAUGGGACCCA [G1A C57U],0
10,AGCCGGCAUGGUCCCAGACUCCUCGCUGGCGCCGGCUGGGCAACAUUCCGAGGGGACCGUCCCCUCGGUAAUGGCGAAUGGGACCCA [G1A C18A],0.113
11,AGCCGGCAUGGUCCCAGCCUCCUCGCUGGCGCCGGCUGGGCAACAUUCCGAGGGGACCGUCCCCUCGGUAAUGGCGAAUAGGACCCA [G1A G80A],0.0455
12,AGCCGGCAUGGUCCCAGCCUCCUCGCUGGCGCCGGCUGGGCAACAUUCCGAGGGGACCGUCCCCUCGGUAAUGACGAAUGGGACCCA [G1A G74A],0.0287
13,AGCCGGCAUGGUCCCAGCCUCCUCGCUGGCGCCGGCUGGGCAACAUUCCCAGGGGACCGUCCCCUCGGUAAUGGCGAAUGGGACCCA [G1A G50C],0.302
14,AGCCGGCAUGGUCCCAGCCUCCUCGCUGGCGCCGGCUGGGCAACAUUCCUAGGGGACCGUCCCCUCGGUAAUGGCGAAUGGGACCCA [G1A G50U],0.128
15,AGCCGACAUGGUCCCAGCCUCCUCGCUGGCGCCGGCUGGGCAACAUUCCGAGGGGACCGUCCCCUCGGUAAUGGCGAAUGGGACCCA [G1A G6A],0.437
16,AGCCGGCAUGCUCCCAGCCUCCUCGCUGGCGCCGGCUGGGCAACAUUCCGAGGGGACCGUCCCCUCGGUAAUGGCGAAUGGGACCCA [G1A G11C],0.172

row,Variant,self-cleavage
1,AGCCGGCAUGGUCCCAGCCUCCUCGCUGGCGCCGGCUGGGCAACAUUCCGAGGGGACCGUCCCCUCGGUAAUGGCGAAUGGGACCUA [G1A C86U],0.19
2,AGCCGGCAUGGUCCCAGCCUCCUCGCUGGCGCCGGCUGGGCAACAUUCCGAGGGGACCGUCCCCUCGGUAAUGGCGAAUGGGACCAA [G1A C86A],0.119
3,ACCCGGCAUGGUCCCAGCCUCCUCGCUGGCGCCGGCUGGGCAACAUUCCGAGGGGACCGUCCCCUCGGUAAUGGCGAAUGGGACCCA [G1A G2C],0.0773
4,AGCCGGCAUGGUCCCAGCCUCCUCGCUGGCGCCGGCUGGGCAACAUUCCGAGGGUACCGUCCCCUCGGUAAUGGCGAAUGGGACCCA [G1A G55U],0.309
5,AGCCGGCAUGGUCCCAGCCUCCUCGCUGGCGCCGGCUGGGCAACAUUCCGAGGGGACCGUCCCCUCGGUAAUGGCGACUGGGACCCA [G1A A78C],0.0627
6,AGCCGGCAUGGUCCCGGCCUCCUCGCUGGCGCCGGCUGGGCAACAUUCCGAGGGGACCGUCCCCUCGGUAAUGGCGAAUGGGACCCA [G1A A16G],0.302
7,AGCCGGCUUGGUCCCAGCCUCCUCGCUGGCGCCGGCUGGGCAACAUUCCGAGGGGACCGUCCCCUCGGUAAUGGCGAAUGGGACCCA [G1A A8U],0
8,AGCCGGCAUGGGCCCAGCCUCCUCGCUGGCGCCGGCUGGGCAACAUUCCGAGGGGACCGUCCCCUCGGUAAUGGCGAAUGGGACCCA [G1A U12G],0.554
9,AGCCGGCAUGGCCCCAGCCUCCUCGCUGGCGCCGGCUGGGCAACAUUCCGAGGGGACCGUCCCCUCGGUAAUGGCGAAUGGGACCCA [G1A U12C],0
10,AGCCGGCAUGGUCCCAGCCUCCUCGCUGGCGCCGGCUGGGCAACAUUCCGAGGGGACAGUCCCCUCGGUAAUGGCGAAUGGGACCCA [G1A C58A],0.0978
11,AGCCGGCAUGGUCCCAGCCUCCGCGCUGGCGCCGGCUGGGCAACAUUCCGAGGGGACCGUCCCCUCGGUAAUGGCGAAUGGGACCCA [G1A U23G],0
12,AGCCGGCAUGGUCCCACCCUCCUCGCUGGCGCCGGCUGGGCAACAUUCCGAGGGGACCGUCCCCUCGGUAAUGGCGAAUGGGACCCA [G1A G17C],0.107
13,AGCCGGCAUGGUCCCAGCCUCCUCGCUCGCGCCGGCUGGGCAACAUUCCGAGGGGACCGUCCCCUCGGUAAUGGCGAAUGGGACCCA [G1A G28C],0.219
14,AGCCGGCAUGGUCCCAGCCUCCUCGCUUGCGCCGGCUGGGCAACAUUCCGAGGGGACCGUCCCCUCGGUAAUGGCGAAUGGGACCCA [G1A G28U],0.106
15,AGCCGGCAUGGUCCCAGCCUCCUCGCUGGCGCCGGCUGGGCAACAUUCCGAGGGGACCGUCCCCUCGGUGAUGGCGAAUGGGACCCA [G1A A70G],0.214
16,AGCCGGCAUGGUCCCAGCCUCCUCGCUGGCGCCGGCUGGGCAACAUUCCGAGGGGACCGUCCCCUAGGUAAUGGCGAAUGGGACCCA [G1A C66A],0.26
